Laboratory results as given in the nanobody polyreactivity screen of Harvey et al. (2022).

Assay: yeast display, Sf9 membrane polyspecificity reagent, FACS + sequencing; frameworks hold sequencing errors
In short: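 Nanobodies came from a synthetic yeast display library in Saccharomyces cerevisiae BJ5465, induced with galactose for 36–48 hours and stained for 1 hour at 4 °C with 10% biotinylated, detergent-solubilized Sf9 membrane reagent. Cells were enriched on streptavidin microbeads and then FACS-sorted, with low and high (top ~1%) gates set on anti-HA fluorescence for expression and streptavidin fluorescence for reagent binding. Each polyreactivity label reflects the gate a clone came from. Genes were amplified by colony PCR, sequenced by MiSeq 2 × 250 and filtered by CDR length.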

| Sequence | polyreactivity (PSR sort gate) |
| --- | --- |
| QVQLVESCGGLVQAGGRLRLSCAASGRIFYSYAMGWSRQAPGKERELVAAITVSGGSTFYADSVKGRFTISRDNAKNTVYLQMNSLKPEDTAVYYCNAPKRYSTIGYDYWGQGSQVTVSS | high polyreactivity |
| QVQLVESCGGLVQAGGSHRLSCAASGRTFRYYAMGWYRQAPWKERELVAAIRRGGSTTYADSVKVRFTISRDNAKNTVYLQMNSLKPEDTAVYYCAARYPGTRGDGYWGQGTQVTVSS | high polyreactivity |
| QVQLVESCGGLVQAGGSHRLSCAASGSTFKGYDMGWYRQAPGKERELVAAIDSGGSTYYADSVKGRFTISRDNAKNTVYLQMNSLKPEDTAVYYCAATGQDTYGLDVVDEYDYWGQGTQVTVSS | low polyreactivity |
| QVQLVESCGGLVQAGGSLPLSCAASGFTFYYYTMGWYRQAPGKERELVAVITGGGGSTYYADSVKGRFTISRDNAKNTVYLQMNSLKPEDTAVYYCAAKFYGWYRERGYDYWGQGTQVTVSS | high polyreactivity |
| QVQLVESCGGLVQAGGSLRLISAASGRTFGHNTMGWYRQAPGKEREYVAAIRWTAGSTYYADSVKGRFTISRDNAKNTVYLQMNSLKPEDTAVYYCAAYYVERRSYRVDRGTTLGYWGQGTQVTVSS | high polyreactivity |
| QVQLVESCGGLVQAGGSLRLSCAASGFIFYDYDMGWYRQAPGKQRELVAAITYSGASTYYADSVKGRFTISRDNAKNTVYLQMNSLKPEDTAVFYCAAVKSRYADAVDYYYWGQGTQVTVSS | low polyreactivity |
| QVQLVESCGGLVQAGGSLRLSCAASGGTFGFYAMGWYRQAPGKERELVAAISRRGGSTYYADSVKGRFTISRDNAKNTVYLQMNSLKPEDTAVYYCAARVYRYRHYDYWGQGTQVTVSS | high polyreactivity |
| QVQLVESCGGLVQAGGSLRLSCAASGHIFFYYTMGWYRQAPGKQRELVAGITIGGSTNYADSVKGRFTISRDNAKNTVYLQMNSLKPEDTAVYYCNVVKYVYIYSYWEYYYWGQGTQVTVSS | low polyreactivity |
| QVQLVESCGGLVQAGGSLRLSCAASGIIFSVNAMGWSRQAPGKERELVAAITIGGSTYYADSVKGRFTISRDNAKNTVYLQMNSLKPEDTAVYYCAADEYGPHTFSPESDSWGQGTQVTVSS | low polyreactivity |
| QVQLVESCGGLVQAGGSLRLSCAASGLIFWKYAMGWYRQAPGKERELVAAITSGGSTNYADSVKGRFTISRDNAKNTVYLQMNSLKPEDTAVYYCNARSWFEYYWGQGTQVTVSS | high polyreactivity |
| QVQLVESCGGLVQAGGSLRLSCAASGRIFGIYSMGWYRQAPGKEREVVARITKSGGSTYYADSVKGRFTISRDNAKNTVYLQMNSLKPEDTAVYYCAASYYGKRDRAGPYYSFDYWGQGTQVTVSS | high polyreactivity |
| QVQLVESCGGLVQAGGSLRLSCAASGRTFGVYAMGWYRQAPGKERDLVAAINYSGGSTYYADSVKGRFTISRDNAKNTVYLQMNSLKPEDTAVYSCNKGPLISYAYRYYQPYDYWGQGTQVTVSS | low polyreactivity |
| QVQLVESCGGLVQAGGSLRLSCAASGRTFVTYAMGWYRQAPGKERELVAAISKRGSRTYYAYSVKGRFTISRDNAKNTVYLQMNSLKPEDTAVYYCNADPYRTSYDYWGQGTQVTVSS | high polyreactivity |
| QVQLVESCGGLVQAGGSLRLSCAASGRTFYGYAMGWYRQAPGKERELVAAITASGGSTNYADSVKGRFTISRDNAKNTVYLQMNSLKPEDTAVYYCAARVYYLGQFYWYGYWGQGTQVTVSS | high polyreactivity |
| QVQLVESCGGLVQAGGSLRLSCAASGRTFYKAMGWYRQAPGKERELVAASTTGGGTKYADSVKGRFTISRDNAQNTVYLQMNSLKPEDTAVYYCNTDEWYHFYHGAHKYDYWGQGTQVTVSS | low polyreactivity |
| QVQLVESCGGLVQAGGSLRLSCAASGSIFGTNAMGWYRQAPGKERELVASITRGGSTNYADSVKGRFTISRDNAKNTVYLQMNSLTPEDTAVYYCNAQGHWRWWGYDYWGQGTQVTVSS | low polyreactivity |
| QVQLVESCGGLVQAGGSLRLSCAASGSTFGYYTMGWYRQAPGKEREFVAAITRSTGSTFYADSVKGRFTISRDNAKNTVYLQMNRLKPEDTAVYDCAATQPWYNTRTRYGSWGQGTQVTVSS | low polyreactivity |
| QVQLVESCGGLVQAGGSLRLSCAASGSTFILYAMGWYRPAPGKERELVAAISWSTGITYYADSVKGRFTISRDNAKNTVYLPMNSLKPEDTAVYYCAADAWGYHDYDASYSTGYEYWGQGTQVTVSS | high polyreactivity |
| QVQLVESCGGLVQAGGSLRLSCAASGSTIVSNAMGWNRQAPGKERDLVAAITSGGTTNYADSVKGRFTISRDNAKNTVYLQMISLKPEETAVYYCAKRETVYYVNHPFTYSHDYCGQGTQVTVSS | low polyreactivity |
| QVQLVESCGGLVQAGGSLRLSCAASGYTFGYYAMGWYRQAPGKERELVAAISWRGARTNYADSVKGRFTISRDNAKNNVYLQMNSLKPEDTAVYYCNAPKHNTVYTDRYDYWGQGTQVTVSS | high polyreactivity |

| Sequence | polyreactivity (PSR sort gate) |
| --- | --- |
| QVQLVESCGGLVQAGGSLRLSCAASGYTFRYYAMGWYRQAPGKERELVARITGRAGSTYYADSVKGRFTISRDNAKNTVYLQMNSLKPEDTAVYYCAASIREGFYWGHGTQVTVSS | high polyreactivity |
| QVQLVESCGGLVQAGGSLRLSCAASRLIFGYYAMGWYRQAPVKERELVASISSGGRTYYADSVKGRFTISRDNAKNTVNLQMNSLKPEDTAVYYCNAVKGWFVYEYDYWGQGTQVTVSS | low polyreactivity |
| QVQLVESCGGLVQAGGSLRLSCAATGLIIRGNDMVWYRQAPWKERELVAGINSSGSTNYADSVKVRFTISRDNAKNTVYLQMNSLKPEDTAVYYCAARAIVSFDYWGQGTQVTVSS | low polyreactivity |
| QVQLVESCGGLVQAGGSLRLSCAAYGSIFTFYAMGWYRQAPGKERELVAAISSGGDTYYADSVTGRFTISRDNAKNTVYLQMNSLKPEDTAVYYCAADWRGSYLYGYYYWGQGTQVTASS | low polyreactivity |
| QVQLVESCGGLVQAGGSLRLSCADSGRTFYKYAMGWYRPAPVKERELVAAITSGGGRTYYADSVKGRFTISRDNAKNTVYLQMNSLKPEDTAVYYCNAVLPLAKYEYDSWGQGTQVTVSS | high polyreactivity |
| QVQLVESCGGLVQAGGSLSLSCAASGSTFNHYAMGWYRQATGKEREFVAAISWSGGSTYYADYVQGRFTISRDNAKNTGYLQMNSLKPEDTAVYYCNAAVSQFSHRWRRRLTFDYWGQGTQVTVSS | high polyreactivity |
| QVQLVESCGVLVQAGGSLRLSCAASGFILYGNAMGWYRQAHGKERELVAAISRRGGSTYYADSVKGRFTISRDNAKNTVYLQMNSLKPEDTAVYYCAKDGPGGGTRIYDYWGLGTQVTVSS | high polyreactivity |
| QVQLVESDGGLVQAGGSLRLSCAASGYIFGGYAMRWYRHAPGKERELVAAISYGVGSTYYADSVKGRFTISRDNAKNTVYLQMNSLKPEDTAVYYCAADVFFYVYEAYLLYYWGQGTQVTVSS | low polyreactivity |
| QVQLVESEGGLVQAGGSLRLSCAASGFIFKYNDMGWYRQAPGKERELVAAIDVRTGLTYYADSVKGRFTISRDNAKTTVYLQMNSLKPEDPAVYYCNADYIQYAYDYWGQGTQVTVSS | high polyreactivity |
| QVQLVESGAGIVQAGGSLRLSCAASGNSYGYAMGWYRQAPGKERELVAAITSGASDTYYADSVKGRFTISRDNAKKTVYLQMNSLKPEDTAVYYCAAVDYTNRYDPYDYWGQGTQVTVSS | low polyreactivity |
| QVQLVESGAGIVQAGGSLRLSCAASGSILWHNAMGWYRQAPGKEREYVDAISARGTRTYYADSVKGRFTISRDNAKNTVYLQLKSLNPEDTAVYYCAARYWDDRARAEDYWGQVTQVTVSS | high polyreactivity |
| QVQLVESGAGLFQAGGRLRLSCAASGRTFQVYAMAWYRHAPGTERELVAAIDLGGGSTYYADSVKGRFTISRDNAKNTVYLQMNSLKQEDTAVYYCAADVGLRFDYWGQGTQVTVSS | high polyreactivity |
| QVQLVESGAGLFQAGGRLRLSCAPSGSTFGTYAMGWYRQAPGKERELVAAITSGGSTDYADSVKGRFTISRDNAKNTVYLQMNSLKPEDTAVYYCNATWELLSYYYLFWGYDYWGQGTQVTVSS | low polyreactivity |
| QVQLVESGAGLFQAGGSLRLTCAPSGSIFAFNTMGLYRQAPGKERHLVAAITWGGGSTYYADSVKGRFTISRDNAKNTVYLQMYSLKPEDTAVYYCATKAKYGRQFLMEYWGQGTQVTVSS | high polyreactivity |
| QVQLVESGAGLLQAGGSLRLSCAASGFIFVTYAMGWYRQAPGKERELVAAITNSGGTTYYADSVKGRFTISRDNAKNTVYLQMISLKPEDTAVYYCNKAYGAETAHREFVYWGQGTQVTVSS | low polyreactivity |
| QVQLVESGAGLVHAGGSLRLSCAASGRIFNYYAMGWYRQAPGKESELVAGINWSGTRTYYADSVKGRFTISRDNAKITVYLQMNSLKPEDTAVYYCNAGRTWRAFTGDEYWVQGTQVTVSS | high polyreactivity |
| QVQLVESGAGLVKAGGSLRLSCASSGRILDFYDMGWYRQAPGKERELVAAITSGTSTYYADSVKGRFTISRDNAKYTVYLQMNSLKPEDTAVYYCAAAHVPVGQYVYWYDYWGQGTQVTVSS | low polyreactivity |
| QVQLVESGAGLVQAAGSLRLICASSGFILLDKAMGWYRQAPGKEREFVASINISGARTFYADSVKGRFTISRDTAKNTVYLQMNSLKPEDTAVYYCAKEPGWGRRSTTAYDYWGQGTQVTVSS | low polyreactivity |
| QVQLVESGAGLVQAAGSLRLSCAASGRTFSRNAMGWYRQAPGQERELVARIRSGGSTYYADSVKGRFTISRDNAKNTVYLQMNSLKPDETAVFYLAADRYGYQFDYWGQGTQVTVSS | high polyreactivity |
| QVQLVESGAGLVQAGGSLRISCAASGFIFNEYAMGWYRQAPGKERELVAAISSGGSTYYADSVKGRFTISRDNAKNTVYLLINSLKPEDTAVYYCNALRRSQPWKYDYWGPGTQVTVSS | low polyreactivity |
